What was measured:
[1] = Activity to degrade phosphoric acid swollen cellulose; type: biochemical; settings: 1% phosphoric acid swollen cellulose, pH 5.2, enzyme 0.5 μM, 1 hour, 50° C.; glucose generated by each parent endoglucanase = 100%
Method: The term “identity” refers to the percentage of amino acid residues identical to and amino acid residues analogous to the other amino acid residues in all the amino acid residues overlapped when an optimum alignment is performed by introducing gaps or no gaps into two amino acid sequences and then aligning the two amino acid sequences. Such an identity can be found using a method known by persons skilled in the art, sequence analysis software, and the like (a known algorithm such as BLAST or FASTA). The term “endoglucanase activity” is as defined above and can be determined by adding an enzyme solution to a substrate solution of phosphoric acid swollen cellulose that has been dissolved in 50 mM acetic acid-sodium acetate buffer (pH 5.2) or the like, performing 1 hour of reaction at 30° C. to 85° C., stopping the reaction by changing the pH if necessary, and then determining the concentration of glucose in the reaction solution using a glucose determination kit, for example.
The mutants obtained in Comparative Example 1 were compared in terms of activity by a technique similar to that in Example 3. The concentration (g/L) of glucose generated by each parent endoglucanase under the above reaction conditions was determined to be 100%.

[2] = Inhibition experiment with vanillin: degradation of phosphoric acid swollen cellulose; type: biochemical; settings: enzyme 0.5 μM, 1 hour, 50° C., parent at 0 mM = 100%
Method: (§6) This substance was diluted using buffer and water to obtain a 2 wt % mixture so that the final concentration of sodium acetate was 50 mM (pH 5.2). This was designated as phosphoric acid swollen cellulose and used for the following examples.
The activity of the wild-type and the mutant endoglucanases to degrade phosphoric acid swollen cellulose in the presence of vanillin was measured. 1% phosphoric acid swollen cellulose/50 mM acetate buffer (pH 5.2) was used as a substrate. Vanillin (Sigma Aldrich) was added at final concentrations of 0, 5, 10, and 15 mM. The enzymes prepared in Reference Example 1 and Example 2 were added at a final concentration of 0.5 μM, followed by 1 hour of enzymatic reaction at 50° C.

[3] = Inhibition experiment with ferulic acid: degradation of phosphoric acid swollen cellulose; type: biochemical; settings: enzyme 0.5 μM, 1 hour, 50° C., parent at 0 mM = 100%
Method: as §6
The activity of the wild-type and the mutant endoglucanases to degrade phosphoric acid swollen cellulose was measured in the presence of ferulic acid. 1% phosphoric acid swollen cellulose/50 mM acetate buffer (pH 5.2) was used as a substrate. Ferulic acid (Sigma Aldrich) was added at final concentrations of 0, 5, 10, and 15 mM. The enzymes prepared in Reference Example 1 and Example 2 were each added at a final concentration of 0.5 μM, followed by 1 hour of enzymatic reaction at 50° C.

[4] = Saccharification of lignocellulose 1 with Celluclast and endoglucanase; type: biochemical, Rice straw; settings: 5 wt % Lignocellulose 1, pH 5.2, 50° C., 24 hours; 1.0 mg/mL cellulase + 0.1 mg/mL endoglucanase
Method: (§1) Rice straw was used as cellulose. The cellulose was added to a small reactor (Taiatsu Techno Corporation, TVS-N2 (30 ml)), and then cooled with liquid nitrogen. An ammonia gas was fed to the reactor, thereby completely immersing the sample in the liquid ammonia. The reactor was closed using its lid, and then left to stand at room temperature for 15 minutes. Subsequently, treatment was performed for 1 hour in an oil bath at 150° C. After treatment, the reactor was removed from the oil bath, an ammonia gas leak was immediately performed within a draft chamber. The reactor was vacuumed using a vacuum pump to 10 Pa for drying. The resultant was used as lignocellulose 1 in the following examples.
(§2) The changes in the amount of glucose generated when the enzyme composition had been caused to act on lignocellulose substrates were compared. The substrates were prepared by suspending 5 wt % lignocelluloses (1 to 3) (prepared in Reference Example 3) in 50 mM acetate buffer (pH5.2). Reactions were performed at 50° C. for 24 hours. The concentrations of the generated glucose were measured after adequate sampling. As a filamentous bacterium-derived cellulase mixture, commercially available Trichoderma reesei-derived cellulase (Celluclast, Sigma) was used. As endoglucanases, the mutant endoglucanases prepared in Example 2 and the wild-type endoglucanases prepared in Reference Example 1 were separately used. The following quantities of enzymes were added: 1.0 mg/mL cellulase, and 0.1 mg/mL endoglucanase (in an amount one tenth that of the cellulase).

[5] = Saccharification of lignocellulose 2 with Celluclast and endoglucanase; type: biochemical, Rice straw; settings: 5 wt % Lignocellulose 2, pH 5.2, 50° C., 24 hours; 1.0 mg/mL cellulase + 0.1 mg/mL endoglucanase
Method: (§3) Rice straw was used as cellulose. Cellulose was immersed in a 1% aqueous sulfuric acid solution, and then autoclaved for 30 minutes at 150° C. (Nitto Koatsu Co. Ltd.). After treatment, the resultant was subjected to solid-liquid separation into an aqueous sulfuric acid solution (hereinafter, referred to as “dilute-sulfuric-acid-treated solution”) and cellulose treated with sulfuric acid. Next, the cellulose treated with sulfuric acid was mixed and agitated with the dilute-sulfuric-acid-treated solution so that the solid content concentration was 10 wt %. Then the mixture was adjusted to around pH 5 using sodium hydroxide. The resultant was used as lignocellulose 2 for the following examples.
as §2

[6] = Saccharification of lignocellulose 3 with Celluclast and endoglucanase; type: biochemical, Rice straw; settings: 5 wt % Lignocellulose 3, pH 5.2, 50° C., 24 hours; 1.0 mg/mL cellulase + 0.1 mg/mL endoglucanase
Method: (§4) Rice straw was used as cellulose. The cellulose was immersed in water, and then autoclaved with agitation at 180° C. for 20 minutes (Nitto Koatsu Co. Ltd.). Pressure at this time was 10 MPa. After treatment, a solution component (hereinafter, referred to as “hydrothermally treated solution”) and the treated biomass component were subjected to solid-liquid separation by centrifugation (3000 G). The thus treated biomass component was used as lignocellulose 3 for the following examples.
as §2

[7] = Saccharification of lignocellulose 1 with Trichoderma reesei culture solution and endoglucanase; type: biochemical, Rice straw; settings: Lignocellulose 1, 24 hours; cellulase 1.0 mg/mL + endoglucanase 0.1 mg/mL + β-glucosidase (Novozyme 188) 0.01 mg/mL
Method: as §1, §2
(§5) Lignocelluloses (1-3) prepared in Reference Example 3 were used as substrates. The Trichoderma reesei culture solution prepared in Reference Example 4 was used as a filamentous bacterium-derived cellulase mixture. Lignocelluloses (1-3) were hydrolyzed in a manner similar to that in Example 7, except for the quantities of the enzymes added: cellulase (1.0 mg/mL); endoglucanase (0.1 mg/mL (in an amount one tenth that of the cellulase); and β-glucosidase (Novozyme 188) (0.01 mg/mL (in an amount one hundredth that of the cellulase).

[8] = Saccharification of lignocellulose 2 with Trichoderma reesei culture solution and endoglucanase; type: biochemical, Rice straw; settings: Lignocellulose 2, 24 hours; cellulase 1.0 mg/mL + endoglucanase 0.1 mg/mL + β-glucosidase (Novozyme 188) 0.01 mg/mL
Method: as §3, §2, §5

[9] = Saccharification of lignocellulose 3 with Trichoderma reesei culture solution and endoglucanase; type: biochemical, Rice straw; settings: Lignocellulose 3, 24 hours; cellulase 1.0 mg/mL + endoglucanase 0.1 mg/mL + β-glucosidase (Novozyme 188) 0.01 mg/mL
Method: as §4, §2, §5

Molecule	Relative activity [1] [%]	Relative activity to degrade phosphoric acid swollen cellulose ([2]; vanillin 0 mM) [%]	Relative activity to degrade phosphoric acid swollen cellulose ([2]; vanillin 5 mM) [%]	Relative activity to degrade phosphoric acid swollen cellulose ([2]; vanillin 10 mM) [%]	Relative activity to degrade phosphoric acid swollen cellulose ([2]; vanillin 15 mM) [%]	Relative activity to degrade phosphoric acid swollen cellulose ([3]; ferulic acid 0 mM) [%]	Relative activity to degrade phosphoric acid swollen cellulose ([3]; ferulic acid 5 mM) [%]	Relative activity to degrade phosphoric acid swollen cellulose ([3]; ferulic acid 10 mM) [%]	Relative activity to degrade phosphoric acid swollen cellulose ([3]; ferulic acid 15 mM) [%]	further results
EGAc Wild-type: Acidthermus cellulolyticus-derived endoglucanase, SEQ ID NO: 31, parent endoglucanase (protein, Acidthermus cellulolyticus EGAc) MPRALRRVPGSRVMLRVGVVVAVLALVAALANLAVPRPARAAGGGYWHTSGREILDANNVPVRIAGINWFGFETCNYVVHGLWSRDYRSMLDQIKSLGYNTIRLPYSDDILKPGTMPNSINFYQMNQDLQGLTSLQVMDKIVAYAGQIGLRIILDRHRPDCSGQSALWYTSSVSEATWISDLQALAQRYKGNPTVVGFDLHNEPHDPACWGCGDPSIDWRLAAERAGNAVLSVNPNLLIFVEGVQSYNGDSYWWGGNLQGAGQYPVVLNVPNRLVYSAHDYATSVYPQTWFSDPTFPNNMPGIWNKNWGYLFNQNIAPVWLGEFGTTLQSTTDQTWLKTLVQYLRPTAQYGADSFQWTFWSWNPDSGDTGGILKDDWQTVDTVKDGYLAPIKSSIFDPVGASASPSSQPSPSVSPSPSPSPSASRTPTPTPTPTASPTPTLTPTATPTPTASPTPSPTAASGARCTASYQVNSDWGNGFTVTVAVTNSGSVATKTWTVSWTFGGNQTITNSWNAAVTQNGQSVTARNMSYNNVIQPGQNTTFGFQASYTGSNAAPTVACAAS	100	100	50	45	40	100	65	60	55	Concentration of glucose generated, Celluclast + Wild-type [4]: 11 g/L; Concentration of glucose generated, Celluclast + Wild-type [5]: 11 g/L; Concentration of glucose generated, Celluclast + Wild-type [6]: 11 g/L; Concentration of glucose generated, Culture solution + Wild-type [7]: 8 g/L; Concentration of glucose generated, Culture solution + Wild-type [8]: 8 g/L; Concentration of glucose generated, Culture solution + Wild-type [9]: 8 g/L
EGAc Mutant: mutant EGAc, SEQ ID NO: 32; residue corresponding to 273rd tryptophan substituted with alanine (protein, Acidthermus cellulolyticus EGAc W254A, residue corresponding to 273rd tryptophan substituted with alanine) MPRALRRVPGSRVMLRVGVVVAVLALVAALANLAVPRPARAAGGGYWHTSGREILDANNVPVRIAGINWFGFETCNYVVHGLWSRDYRSMLDQIKSLGYNTIRLPYSDDILKPGTMPNSINFYQMNQDLQGLTSLQVMDKIVAYAGQIGLRIILDRHRPDCSGQSALWYTSSVSEATWISDLQALAQRYKGNPTVVGFDLHNEPHDPACWGCGDPSIDWRLAAERAGNAVLSVNPNLLIFVEGVQSYNGDSYWAGGNLQGAGQYPVVLNVPNRLVYSAHDYATSVYPQTWFSDPTFPNNMPGIWNKNWGYLFNQNIAPVWLGEFGTTLQSTTDQTWLKTLVQYLRPTAQYGADSFQWTFWSWNPDSGDTGGILKDDWQTVDTVKDGYLAPIKSSIFDPVGASASPSSQPSPSVSPSPSPSPSASRTPTPTPTPTASPTPTLTPTATPTPTASPTPSPTAASGARCTASYQVNSDWGNGFTVTVAVTNSGSVATKTWTVSWTFGGNQTITNSWNAAVTQNGQSVTARNMSYNNVIQPGQNTTFGFQASYTGSNAAPTVACAAS	100	100	100	95	95	100	100	100	95	Concentration of glucose generated, Celluclast + Mutant [4]: 16 g/L; Concentration of glucose generated, Celluclast + Mutant [5]: 14 g/L; Concentration of glucose generated, Celluclast + Mutant [6]: 14 g/L; Concentration of glucose generated, Culture solution + Mutant [7]: 13 g/L; Concentration of glucose generated, Culture solution + Mutant [8]: 11 g/L; Concentration of glucose generated, Culture solution + Mutant [9]: 11 g/L

Reference: patent publication US9193963B2, “Mutant endoglucanase” (Toray Industries, Inc., priority 2011, dated 2015)
